Square brackets hold non-standard residues; d marks the D form. Ends that are not written are not given here. * marks the point of attachment. Desaminotyrosyl = O=C(CCc1ccc(O)cc1)*; NMeY = CN[C@@H](Cc1ccc(O)cc1)C(=O)O; hArg = N=C(N)NCCCC[C@H](N)C(=O)O; Agmatine = N=C(N)NCCCCN*; Nle = CCCC[C@H](N)C(=O)O; Orn = NCCC[C@H](N)C(=O)O; Abu = CC[C@H](N)C(=O)O; GABA = NCCCC(=O)O
Key:
[1] = biological target: GHRH receptor of human pituitary membrane homogenates (human) (UniProt Q02643); experiment: radioligand competition, [His1,125I-Tyr10,Nle27]hGHRH(1-32)NH2 (0.2 nM) as competitor, human pituitary membrane homogenates
[2] = biological target: GHRH receptor of human pituitary membrane homogenates (human) (UniProt Q02643); experiment: radioligand competition, 125I-JV-1-42 (~0.2 nM) as competitor, human pituitary membrane homogenates
[3] = biological target: GHRH receptor of human pituitary membrane homogenates (human) (UniProt Q02643); experiment: as above; remark: listed apart in the source
[4] = biological target: T1, GHRH receptor of human pituitary membrane homogenates (human, UniProt Q02643 23-423); experiment: as above
T1 construct: whole, on cells; Native receptor in pituitary membrane homogenates, not intact cells; also called hGH-RH receptor
T1 sequence (looked up): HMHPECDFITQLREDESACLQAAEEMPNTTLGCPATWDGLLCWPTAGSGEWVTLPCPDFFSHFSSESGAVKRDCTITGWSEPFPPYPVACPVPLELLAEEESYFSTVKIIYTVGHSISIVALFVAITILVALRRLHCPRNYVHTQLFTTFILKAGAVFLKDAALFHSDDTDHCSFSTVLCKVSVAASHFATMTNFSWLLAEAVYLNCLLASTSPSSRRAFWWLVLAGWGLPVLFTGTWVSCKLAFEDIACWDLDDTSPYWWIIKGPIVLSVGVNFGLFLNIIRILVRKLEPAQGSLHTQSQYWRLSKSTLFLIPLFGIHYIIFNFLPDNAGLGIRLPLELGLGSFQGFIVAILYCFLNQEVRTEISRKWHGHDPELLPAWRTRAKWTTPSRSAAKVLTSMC
Method: (§1) Normal human pituitaries were purchased from the National Hormone and Peptide Program (A. F. Parlow, Los Angeles, County Harbor-UCLA Medical Center, Torrance, Calif.).
The final binding affinities were expressed as IC₅₀ values and were calculated by using the LIGAND PC computerized curve-fitting program of Munson and Rodbard as modified by McPherson.

[5] = biological target: T1, GHRH receptor of human pituitary …; experiment: as above; remark: listed apart in the source
Description: as §1

[6] = biological target: T1, GHRH receptor of human pituitary …; experiment: radioligand competition, [His1,125I-Tyr10,Nle27]hGHRH(1-32)NH2 (0.2 nM) as competitor, human pituitary membrane homogenates
Description: Normal human pituitaries were purchased from the National Hormone and Peptide Program (A. F. Parlow, Los Angeles, County Harbor—UCLA Medical Center, Torrance, Calif.).

Molecule “[Dat^1, D-Ala^2, Gln^8, Orn^12, Abu^15, Orn^21, Nle^27, Asp^28, Amc^30]hGH-RH(1-30)NH2 (from UniProt P01286 32-61) (peptide)” has an IC50 [1] of 0.08 nM, a Relative affinity (Binding potency) vs GHRH (fold, GHRH(1-29) = 1) [1] of 74 and a Relative affinity (Binding potency) vs JI-38 (fold, JI-38 = 1) [1] of 24.4.

“[Dat^1, D-Ala^2, Fpa5^6, Orn^12, Abu^15, Orn^21, Nle^27, Gab^30]hGH-RH(1-30)NH2 (from UniProt P01286 32-61) (peptide)” gave an IC50 [2] of 0.07 nM, a Relative affinity (Binding potency) vs GHRH (fold, GHRH(1-29) = 1) [2] of 58 and a Relative affinity (Binding potency) vs JI-38 (fold, JI-38 = 1) [2] of 24.4. It also gave an IC50 [3] of 0.33 nM and a Relative affinity (Binding potency) vs JI-38 (fold, JI-38 = 1) [3] of 13.2.

Molecule “[Dat^1, D-Ala^2, Gln^8, Orn^12, Abu^15, Orn^21, Nle^27, Asp^28, Agm^29]hGH-RH(1-29) (from UniProt P01286 32-60) (peptide)” has an IC50 [2] of 0.04 nM, a Relative affinity (Binding potency) vs GHRH (fold, GHRH(1-29) = 1) [2] of 102 and a Relative affinity (Binding potency) vs JI-38 (fold, JI-38 = 1) [2] of 42.7. It also gave an IC50 [3] of 0.52 nM and a Relative affinity (Binding potency) vs JI-38 (fold, JI-38 = 1) [3] of 8.37.

B1: [Dat^1, D-Ala^2, Orn^12, Abu^15, Orn^21, Nle^27, Gln-Gab^30]hGH-RH(1-30)NH2 (peptide)
peptide: [Desaminotyrosyl][dA]DAIFTNSYR[Orn]VL[Abu]QLSAR[Orn]LLQDI[Nle]SRQ[GABA]-NH2
SMILES: CCCC[C@H](NC(=O)[C@@H](NC(=O)[C@H](CC(=O)O)NC(=O)[C@H](CCC(N)=O)NC(=O)[C@H](CC(C)C)NC(=O)[C@H](CC(C)C)NC(=O)[C@H](CCCN)NC(=O)[C@H](CCCNC(=N)N)NC(=O)[C@H](C)NC(=O)[C@H](CO)NC(=O)[C@H](CC(C)C)NC(=O)[C@H](CCC(N)=O)NC(=O)[C@H](CC)NC(=O)[C@H](CC(C)C)NC(=O)[C@@H](NC(=O)[C@H](CCCN)NC(=O)[C@H](CCCNC(=N)N)NC(=O)[C@H](Cc1ccc(O)cc1)NC(=O)[C@H](CO)NC(=O)[C@H](CC(N)=O)NC(=O)[C@@H](NC(=O)[C@H](Cc1ccccc1)NC(=O)[C@@H](NC(=O)[C@H](C)NC(=O)[C@H](CC(=O)O)NC(=O)[C@@H](C)NC(=O)CCc1ccc(O)cc1)[C@@H](C)CC)[C@@H](C)O)C(C)C)[C@@H](C)CC)C(=O)N[C@@H](CO)C(=O)N[C@@H](CCCNC(=N)N)C(=O)N[C@@H](CCC(N)=O)C(=O)NCCCC(N)=O
notes: T0009 prints Asn^s for Asn^8; also called P29702
In the case of B1, the IC50 [4] is reported as 0.05 nM, the “Relative affinity (Binding potency) vs GHRH” value [4] is reported as 81.2 fold, GHRH(1-29) = 1 and the “Relative affinity (Binding potency) vs JI-38” value [4] is reported as 34.2 fold, JI-38 = 1. For the same molecule, the IC50 [5] was 0.86 nM and the “Relative affinity (Binding potency) vs JI-38” value [5] was 5.06 fold, JI-38 = 1.

In the case of [NMeY]ADAIFTQSYR[Orn]VL[Abu]QLSAR[Orn]LLQDI[Nle]D[Agmatine] (also called P20356) [[N-Me-Tyr^1, Gln^8, Orn^12, Abu^15, Orn^21, Nle^27, Asp^28, Agm^29]hGH-RH(1-29)], the IC50 [4] is reported as 0.01 nM, the “Relative affinity (Binding potency) vs GHRH” value [4] is reported as 406 fold, GHRH(1-29) = 1 and the “Relative affinity (Binding potency) vs JI-38” value [4] is reported as 171 fold, JI-38 = 1. The IC50 [5] was 0.27 nM and the “Relative affinity (Binding potency) vs JI-38” value [5] was 16.1 fold, JI-38 = 1.

B2: [Dat^1, D-Ala^2, Thr^8, Orn^12, Abu^15, Orn^21, Nle^27, Asp^28, Har^30]hGH-RH(1-30)NH2 (peptide)
chain: [Desaminotyrosyl][dA]DAIFTTSYR[Orn]VL[Abu]QLSAR[Orn]LLQDI[Nle]DR[hArg]-NH2
SMILES: CCCC[C@H](NC(=O)[C@@H](NC(=O)[C@H](CC(=O)O)NC(=O)[C@H](CCC(N)=O)NC(=O)[C@H](CC(C)C)NC(=O)[C@H](CC(C)C)NC(=O)[C@H](CCCN)NC(=O)[C@H](CCCNC(=N)N)NC(=O)[C@H](C)NC(=O)[C@H](CO)NC(=O)[C@H](CC(C)C)NC(=O)[C@H](CCC(N)=O)NC(=O)[C@H](CC)NC(=O)[C@H](CC(C)C)NC(=O)[C@@H](NC(=O)[C@H](CCCN)NC(=O)[C@H](CCCNC(=N)N)NC(=O)[C@H](Cc1ccc(O)cc1)NC(=O)[C@H](CO)NC(=O)[C@@H](NC(=O)[C@@H](NC(=O)[C@H](Cc1ccccc1)NC(=O)[C@@H](NC(=O)[C@H](C)NC(=O)[C@H](CC(=O)O)NC(=O)[C@@H](C)NC(=O)CCc1ccc(O)cc1)[C@@H](C)CC)[C@@H](C)O)[C@@H](C)O)C(C)C)[C@@H](C)CC)C(=O)N[C@@H](CC(=O)O)C(=O)N[C@@H](CCCNC(=N)N)C(=O)N[C@@H](CCCCNC(=N)N)C(N)=O
With B2 the IC50 [6] was 0.07 nM, the “Relative affinity (Binding potency) vs GHRH” value [6] was 84.5 fold, GHRH(1-29) = 1 and the “Relative affinity (Binding potency) vs JI-38” value [6] was 27.8 fold, JI-38 = 1.

B3: [Dat^1, D-Ala^2, Ala^8, Orn^12, Abu^15, Orn^21, Nle^27, Asp^28, Har^30]hGH-RH(1-30)NH2 (peptide)
chain: [Desaminotyrosyl][dA]DAIFTASYR[Orn]VL[Abu]QLSAR[Orn]LLQDI[Nle]DR[hArg]-NH2
SMILES: CCCC[C@H](NC(=O)[C@@H](NC(=O)[C@H](CC(=O)O)NC(=O)[C@H](CCC(N)=O)NC(=O)[C@H](CC(C)C)NC(=O)[C@H](CC(C)C)NC(=O)[C@H](CCCN)NC(=O)[C@H](CCCNC(=N)N)NC(=O)[C@H](C)NC(=O)[C@H](CO)NC(=O)[C@H](CC(C)C)NC(=O)[C@H](CCC(N)=O)NC(=O)[C@H](CC)NC(=O)[C@H](CC(C)C)NC(=O)[C@@H](NC(=O)[C@H](CCCN)NC(=O)[C@H](CCCNC(=N)N)NC(=O)[C@H](Cc1ccc(O)cc1)NC(=O)[C@H](CO)NC(=O)[C@H](C)NC(=O)[C@@H](NC(=O)[C@H](Cc1ccccc1)NC(=O)[C@@H](NC(=O)[C@H](C)NC(=O)[C@H](CC(=O)O)NC(=O)[C@@H](C)NC(=O)CCc1ccc(O)cc1)[C@@H](C)CC)[C@@H](C)O)C(C)C)[C@@H](C)CC)C(=O)N[C@@H](CC(=O)O)C(=O)N[C@@H](CCCNC(=N)N)C(=O)N[C@@H](CCCCNC(=N)N)C(N)=O
With B3 the IC50 [6] was 0.04 nM, the “Relative affinity (Binding potency) vs GHRH” value [6] was 148 fold, GHRH(1-29) = 1 and the “Relative affinity (Binding potency) vs JI-38” value [6] was 48.7 fold, JI-38 = 1.

Reference: patent publication US20140058068A1 (UNIVERSITY OF MIAMI, published 2014)
